# Columns and labels:
# [1] = system: Control peptide #112: [5-Fam]TRIDEANQRATK[DABCYL]-Hex
# [2] = system: Control peptide #113: [4-Mu]TRIDEANQRATK[DABCYL]-Hex
substance,measurement,setting,value
Trypsin,KM,[1],3.75 µM
same,KM,[2],13.3 µM

# — patent US20210255174
